Data published in the supplement of paper PMC10567573.

B1: FUT8 (parent)
chain: NWRYATGGWETVFRPVSETCTDRS

Variants of: B1
Assay: protein stability index of a GFP-peptide fusion (GPS, HEK-293T) (PSI 1-6); higher = more stable
Conditions: c terminus: a fixed tail appended
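Note: lentivirally expressed fusions sorted by FACS into six bins by GFP to DsRed ratio, PSI derived from sequencing read proportions per bin multiplied by bin number.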

Q: Which protein stability index does the source give for NWRYFTGGWETVFRPVSETCTDRS [A5F] here?
A: 2.43

Q: Which protein stability index does the source give for NWRYETGGWETVFRPVSETCTDRS [A5E] here?
A: 2.82

Q: With NWRYITGGWETVFRPVSETCTDRS [A5I] as the variant, how does the protein stability index read?
A: 1.39

Q: With NWRYQTGGWETVFRPVSETCTDRS [A5Q] as the variant, how does the protein stability index read?
A: 2.91

Q: With NWRYSTGGWETVFRPVSETCTDRS [A5S] as the variant, how does the protein stability index read?
A: 2.36

Q: Which protein stability index does the source give for NWRYRTGGWETVFRPVSETCTDRS [A5R] here?
A: 2.28

Q: Which protein stability index does the source give for NWRYTTGGWETVFRPVSETCTDRS [A5T] here?
A: 2.33

Q: Which protein stability index does the source give for NWRYLTGGWETVFRPVSETCTDRS [A5L] here?
A: 2.66

Q: For NWRYDTGGWETVFRPVSETCTDRS [A5D], which protein stability index is on record?
A: 3.2

Q: For NWRYHTGGWETVFRPVSETCTDRS [A5H], which protein stability index is on record?
A: 3.69

Q: With NWRYYTGGWETVFRPVSETCTDRS [A5Y] as the variant, how does the protein stability index read?
A: 2.94

Q: With NWRYWTGGWETVFRPVSETCTDRS [A5W] as the variant, how does the protein stability index read?
A: 3.33

Q: For NWRYMTGGWETVFRPVSETCTDRS [A5M], which protein stability index is on record?
A: 3.05

Q: For NWRYCTGGWETVFRPVSETCTDRS [A5C], which protein stability index is on record?
A: 1.05

Q: With NWRYNTGGWETVFRPVSETCTDRS [A5N] as the variant, how does the protein stability index read?
A: 2.95

Q: With NWRYPTGGWETVFRPVSETCTDRS [A5P] as the variant, how does the protein stability index read?
A: 1.48

Q: Which protein stability index does the source give for NWRYKTGGWETVFRPVSETCTDRS [A5K] here?
A: 3.36

Q: With NWRYATGHWETVFRPVSETCTDRS [G8H] as the variant, how does the protein stability index read?
A: 2.43

Q: Which protein stability index does the source give for NWRYATGAWETVFRPVSETCTDRS [G8A] here?
A: 1.84

Q: For NWRYATGIWETVFRPVSETCTDRS [G8I], which protein stability index is on record?
A: 1.48

Q: With NWRYATGKWETVFRPVSETCTDRS [G8K] as the variant, how does the protein stability index read?
A: 3.73

Q: With NWRYATGMWETVFRPVSETCTDRS [G8M] as the variant, how does the protein stability index read?
A: 2.01

Q: For NWRYATGEWETVFRPVSETCTDRS [G8E], which protein stability index is on record?
A: 2.22

Q: With NWRYATGLWETVFRPVSETCTDRS [G8L] as the variant, how does the protein stability index read?
A: 1.82

Q: With NWRYATGNWETVFRPVSETCTDRS [G8N] as the variant, how does the protein stability index read?
A: 2.26

Q: With NWRYATGPWETVFRPVSETCTDRS [G8P] as the variant, how does the protein stability index read?
A: 1.74

Q: With NWRYATGCWETVFRPVSETCTDRS [G8C] as the variant, how does the protein stability index read?
A: 1.55

Q: Which protein stability index does the source give for NWRYATGFWETVFRPVSETCTDRS [G8F] here?
A: 1.53

Q: With NWRYATGDWETVFRPVSETCTDRS [G8D] as the variant, how does the protein stability index read?
A: 2.9

Q: For NWRAATGGWETVFRPVSETCTDRS [Y4A], which protein stability index is on record?
A: 3.42

Q: For NWRWATGGWETVFRPVSETCTDRS [Y4W], which protein stability index is on record?
A: 2.98

Q: For NWRPATGGWETVFRPVSETCTDRS [Y4P], which protein stability index is on record?
A: 3.85

Q: For NWRNATGGWETVFRPVSETCTDRS [Y4N], which protein stability index is on record?
A: 3.32

Q: With NWREATGGWETVFRPVSETCTDRS [Y4E] as the variant, how does the protein stability index read?
A: 4.67

Q: Which protein stability index does the source give for NWRTATGGWETVFRPVSETCTDRS [Y4T] here?
A: 3.27

Q: For NWRLATGGWETVFRPVSETCTDRS [Y4L], which protein stability index is on record?
A: 2.36

Q: With NWRHATGGWETVFRPVSETCTDRS [Y4H] as the variant, how does the protein stability index read?
A: 3.39

Q: Which protein stability index does the source give for NWRCATGGWETVFRPVSETCTDRS [Y4C] here?
A: 2.6

Q: For NWRVATGGWETVFRPVSETCTDRS [Y4V], which protein stability index is on record?
A: 3.42

Q: With NWRFATGGWETVFRPVSETCTDRS [Y4F] as the variant, how does the protein stability index read?
A: 2.45

Q: With NWRQATGGWETVFRPVSETCTDRS [Y4Q] as the variant, how does the protein stability index read?
A: 3.35

Q: Which protein stability index does the source give for NWRSATGGWETVFRPVSETCTDRS [Y4S] here?
A: 3.66

Q: With NWRDATGGWETVFRPVSETCTDRS [Y4D] as the variant, how does the protein stability index read?
A: 3.13

Q: For NWRRATGGWETVFRPVSETCTDRS [Y4R], which protein stability index is on record?
A: 3.07

Q: For NWRMATGGWETVFRPVSETCTDRS [Y4M], which protein stability index is on record?
A: 2.16

Q: Which protein stability index does the source give for NWRIATGGWETVFRPVSETCTDRS [Y4I] here?
A: 2.63

Q: Which protein stability index does the source give for NWRGATGGWETVFRPVSETCTDRS [Y4G] here?
A: 4.34

Q: Which protein stability index does the source give for NWIYATGGWETVFRPVSETCTDRS [R3I] here?
A: 2.32

Q: For NWWYATGGWETVFRPVSETCTDRS [R3W], which protein stability index is on record?
A: 2.46

Q: With NWVYATGGWETVFRPVSETCTDRS [R3V] as the variant, how does the protein stability index read?
A: 2.85

Q: For NWTYATGGWETVFRPVSETCTDRS [R3T], which protein stability index is on record?
A: 3.09

Q: For NWQYATGGWETVFRPVSETCTDRS [R3Q], which protein stability index is on record?
A: 3.15

Q: With NWSYATGGWETVFRPVSETCTDRS [R3S] as the variant, how does the protein stability index read?
A: 2.69

Q: Which protein stability index does the source give for NWPYATGGWETVFRPVSETCTDRS [R3P] here?
A: 3.06

Q: Which protein stability index does the source give for NWEYATGGWETVFRPVSETCTDRS [R3E] here?
A: 3.75

Q: For NWGYATGGWETVFRPVSETCTDRS [R3G], which protein stability index is on record?
A: 3

Q: With NWMYATGGWETVFRPVSETCTDRS [R3M] as the variant, how does the protein stability index read?
A: 2.44

Q: Which protein stability index does the source give for NWFYATGGWETVFRPVSETCTDRS [R3F] here?
A: 1.97

Q: With NWNYATGGWETVFRPVSETCTDRS [R3N] as the variant, how does the protein stability index read?
A: 3.83

Q: For NWLYATGGWETVFRPVSETCTDRS [R3L], which protein stability index is on record?
A: 2.69

Q: For NWYYATGGWETVFRPVSETCTDRS [R3Y], which protein stability index is on record?
A: 1.76

Q: With NWHYATGGWETVFRPVSETCTDRS [R3H] as the variant, how does the protein stability index read?
A: 2.85

Q: Which protein stability index does the source give for NWRYAKGGWETVFRPVSETCTDRS [T6K] here?
A: 1.1

Q: Which protein stability index does the source give for NWRYALGGWETVFRPVSETCTDRS [T6L] here?
A: 1.73

Q: For NWRYANGGWETVFRPVSETCTDRS [T6N], which protein stability index is on record?
A: 1.48

Q: For NWRYAIGGWETVFRPVSETCTDRS [T6I], which protein stability index is on record?
A: 2.63

Q: Which protein stability index does the source give for NWRYAWGGWETVFRPVSETCTDRS [T6W] here?
A: 1.65

Q: For NWRYAPGGWETVFRPVSETCTDRS [T6P], which protein stability index is on record?
A: 2.44

Q: Which protein stability index does the source give for NWRYADGGWETVFRPVSETCTDRS [T6D] here?
A: 2.72

Q: For NWRYAHGGWETVFRPVSETCTDRS [T6H], which protein stability index is on record?
A: 1.28

Q: With NWRYAVGGWETVFRPVSETCTDRS [T6V] as the variant, how does the protein stability index read?
A: 2.11

Q: Which protein stability index does the source give for NWRYAQGGWETVFRPVSETCTDRS [T6Q] here?
A: 1.6

Q: With NWRYASGGWETVFRPVSETCTDRS [T6S] as the variant, how does the protein stability index read?
A: 1

Q: With NWRYAMGGWETVFRPVSETCTDRS [T6M] as the variant, how does the protein stability index read?
A: 1.74

Q: Which protein stability index does the source give for NWRYAEGGWETVFRPVSETCTDRS [T6E] here?
A: 2.25

Q: Which protein stability index does the source give for NWRYARGGWETVFRPVSETCTDRS [T6R] here?
A: 1.51

Q: With NWRYAYGGWETVFRPVSETCTDRS [T6Y] as the variant, how does the protein stability index read?
A: 1.96

Q: With NWRYATQGWETVFRPVSETCTDRS [G7Q] as the variant, how does the protein stability index read?
A: 2.49

Q: For NWRYATAGWETVFRPVSETCTDRS [G7A], which protein stability index is on record?
A: 2.94

Q: With NWRYATIGWETVFRPVSETCTDRS [G7I] as the variant, how does the protein stability index read?
A: 2.11

Q: With NWRYATEGWETVFRPVSETCTDRS [G7E] as the variant, how does the protein stability index read?
A: 3.17

Q: Which protein stability index does the source give for NWRYATKGWETVFRPVSETCTDRS [G7K] here?
A: 2.39

Q: With NWRYATMGWETVFRPVSETCTDRS [G7M] as the variant, how does the protein stability index read?
A: 1.81

Q: For NWRYATNGWETVFRPVSETCTDRS [G7N], which protein stability index is on record?
A: 2.13

Q: With NWRYATTGWETVFRPVSETCTDRS [G7T] as the variant, how does the protein stability index read?
A: 2.12

Q: With NWRYATPGWETVFRPVSETCTDRS [G7P] as the variant, how does the protein stability index read?
A: 2.19

Q: Which protein stability index does the source give for NWRYATYGWETVFRPVSETCTDRS [G7Y] here?
A: 2.12

Q: With NWRYATHGWETVFRPVSETCTDRS [G7H] as the variant, how does the protein stability index read?
A: 2.22

Q: Which protein stability index does the source give for NWRYATFGWETVFRPVSETCTDRS [G7F] here?
A: 2.64

Q: With NWRYATWGWETVFRPVSETCTDRS [G7W] as the variant, how does the protein stability index read?
A: 1.59

Q: With NWRYATRGWETVFRPVSETCTDRS [G7R] as the variant, how does the protein stability index read?
A: 1.75

Q: Which protein stability index does the source give for NWRYATLGWETVFRPVSETCTDRS [G7L] here?
A: 1.89

Q: With NWRYATSGWETVFRPVSETCTDRS [G7S] as the variant, how does the protein stability index read?
A: 1.97

Q: For NWRYATCGWETVFRPVSETCTDRS [G7C], which protein stability index is on record?
A: 2.08
